Test results taken from US20090298759A1 (published 2009).

How the values were obtained:
[1] = target: T1, recombinant human FcγRI from R&D Systems (Cat#1257-FC-050) (human, UniProt P12314 16-292); assay: ELISA, recombinant human FcγRI
T1 construct: extracellular domain; Bought reagent; also called CD64

FcγRI = target: T2, FcγRI; assay: surface plasmon resonance; FcγRI immobilized (1000 µRIU), CRP injected at 42, 84, 169 and 338 nM
T2 construct: also called FcgRI; CD64
Description: FcγRI (1000 μRIU) were immobilized CRP was injected @ 42 nM, 84 nM, 169 nM and 338 nM. Data are recorded as resonance units over time after injection.

T1 sequence (P12314 16-292): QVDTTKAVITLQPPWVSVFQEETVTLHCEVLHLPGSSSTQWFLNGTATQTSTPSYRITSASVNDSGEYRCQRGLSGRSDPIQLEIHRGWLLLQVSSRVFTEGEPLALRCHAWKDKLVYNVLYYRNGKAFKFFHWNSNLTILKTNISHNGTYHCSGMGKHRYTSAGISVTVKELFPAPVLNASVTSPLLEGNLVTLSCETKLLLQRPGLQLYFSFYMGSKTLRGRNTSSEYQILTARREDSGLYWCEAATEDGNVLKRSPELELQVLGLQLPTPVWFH
T2 sequence (P12314 16-292): as above

B1: C-reactive protein (CRP) (ligand)
chain: QTDMSRKAFVFPKESDTSYVSLKAPLTKPLKAFTVCLHFYTELSSTRGYSIFSYATKRQDNEILIFWSKDIGYSFTVGGSEILFEVPEVTVAPVHICTSWESASGIVEFWVDGKPRVRKSLKKGYTVGAEASIILGQEQDSFGGNFEGSQSLVGDIGNVNMWDFVLSPDEINTIYLGGPFSPNVLNWRALKYEVQGEVFTKPQLWP
notes: also called human CRP
For B1, the binding result [1] was “binds” and the Kd (FcγRI) was 183 nM.
